Measured values from IntAct's records for PubMed 17703188.

B1: Discoidin domain-containing receptor 2 (Homo sapiens), Q16832 (parent)
chain: MILIPRMLLVLFLLLPILSSAKAQVNPAICRYPLGMSGGQIPDEDITASSQWSESTAAKYGRLDSEEGDGAWCPEIPVEPDDLKEFLQIDLHTLHFITLVGTQGRHAGGHGIEFAPMYKINYSRDGTRWISWRNRHGKQVLDGNSNPYDIFLKDLEPPIVARFVRFIPVTDHSMNVCMRVELYGCVWLDGLVSYNAPAGQQFVLPGGSIIYLNDSVYDGAVGYSMTEGLGQLTDGVSGLDDFTQTHEYHVWPGYDYVGWRNESATNGYIEIMFEFDRIRNFTTMKVHCNNMFAKGVKIFKEVQCYFRSEASEWEPNAISFPLVLDDVNPSARFVTVPLHHRMASAIKCQYHFADTWMMFSEITFQSDAAMYNNSEALPTSPMAPTTYDPMLKVDDSNTRILIGCLVAIIFILLAIIVIILWRQFWQKMLEKASRRMLDDEMTVSLSLPSDSSMFNNNRSSSPSEQGSNSTYDRIFPLRPDYQEPSRLIRKLPEFAPGEEESGCSGVVKPVQPSGPEGVPHYAEADIVNLQGVTGGNTYSVPAVTMDLLSGKDVAVEEFPRKLLTFKEKLGEGQFGEVHLCEVEGMEKFKDKDFALDVSANQPVLVAVKMLRADANKNARNDFLKEIKIMSRLKDPNIIHLLAVCITDDPLCMITEYMENGDLNQFLSRHEPPNSSSSDVRTVSYTNLKFMATQIASGMKYLSSLNFVHRDLATRNCLVGKNYTIKIADFGMSRNLYSGDYYRIQGRAVLPIRWMSWESILLGKFTTASDVWAFGVTLWETFTFCQEQPYSQLSDEQVIENTGEFFRDQGRQTYLPQPAICPDSVYKLMLSCWRRDTKNRPSFQEIHLLLLQQGDE

Variants of: B1
Conditions: with coba2_human COL11A2, P13942
coba2_human COL11A2, P13942, sequence (P13942 whole entry): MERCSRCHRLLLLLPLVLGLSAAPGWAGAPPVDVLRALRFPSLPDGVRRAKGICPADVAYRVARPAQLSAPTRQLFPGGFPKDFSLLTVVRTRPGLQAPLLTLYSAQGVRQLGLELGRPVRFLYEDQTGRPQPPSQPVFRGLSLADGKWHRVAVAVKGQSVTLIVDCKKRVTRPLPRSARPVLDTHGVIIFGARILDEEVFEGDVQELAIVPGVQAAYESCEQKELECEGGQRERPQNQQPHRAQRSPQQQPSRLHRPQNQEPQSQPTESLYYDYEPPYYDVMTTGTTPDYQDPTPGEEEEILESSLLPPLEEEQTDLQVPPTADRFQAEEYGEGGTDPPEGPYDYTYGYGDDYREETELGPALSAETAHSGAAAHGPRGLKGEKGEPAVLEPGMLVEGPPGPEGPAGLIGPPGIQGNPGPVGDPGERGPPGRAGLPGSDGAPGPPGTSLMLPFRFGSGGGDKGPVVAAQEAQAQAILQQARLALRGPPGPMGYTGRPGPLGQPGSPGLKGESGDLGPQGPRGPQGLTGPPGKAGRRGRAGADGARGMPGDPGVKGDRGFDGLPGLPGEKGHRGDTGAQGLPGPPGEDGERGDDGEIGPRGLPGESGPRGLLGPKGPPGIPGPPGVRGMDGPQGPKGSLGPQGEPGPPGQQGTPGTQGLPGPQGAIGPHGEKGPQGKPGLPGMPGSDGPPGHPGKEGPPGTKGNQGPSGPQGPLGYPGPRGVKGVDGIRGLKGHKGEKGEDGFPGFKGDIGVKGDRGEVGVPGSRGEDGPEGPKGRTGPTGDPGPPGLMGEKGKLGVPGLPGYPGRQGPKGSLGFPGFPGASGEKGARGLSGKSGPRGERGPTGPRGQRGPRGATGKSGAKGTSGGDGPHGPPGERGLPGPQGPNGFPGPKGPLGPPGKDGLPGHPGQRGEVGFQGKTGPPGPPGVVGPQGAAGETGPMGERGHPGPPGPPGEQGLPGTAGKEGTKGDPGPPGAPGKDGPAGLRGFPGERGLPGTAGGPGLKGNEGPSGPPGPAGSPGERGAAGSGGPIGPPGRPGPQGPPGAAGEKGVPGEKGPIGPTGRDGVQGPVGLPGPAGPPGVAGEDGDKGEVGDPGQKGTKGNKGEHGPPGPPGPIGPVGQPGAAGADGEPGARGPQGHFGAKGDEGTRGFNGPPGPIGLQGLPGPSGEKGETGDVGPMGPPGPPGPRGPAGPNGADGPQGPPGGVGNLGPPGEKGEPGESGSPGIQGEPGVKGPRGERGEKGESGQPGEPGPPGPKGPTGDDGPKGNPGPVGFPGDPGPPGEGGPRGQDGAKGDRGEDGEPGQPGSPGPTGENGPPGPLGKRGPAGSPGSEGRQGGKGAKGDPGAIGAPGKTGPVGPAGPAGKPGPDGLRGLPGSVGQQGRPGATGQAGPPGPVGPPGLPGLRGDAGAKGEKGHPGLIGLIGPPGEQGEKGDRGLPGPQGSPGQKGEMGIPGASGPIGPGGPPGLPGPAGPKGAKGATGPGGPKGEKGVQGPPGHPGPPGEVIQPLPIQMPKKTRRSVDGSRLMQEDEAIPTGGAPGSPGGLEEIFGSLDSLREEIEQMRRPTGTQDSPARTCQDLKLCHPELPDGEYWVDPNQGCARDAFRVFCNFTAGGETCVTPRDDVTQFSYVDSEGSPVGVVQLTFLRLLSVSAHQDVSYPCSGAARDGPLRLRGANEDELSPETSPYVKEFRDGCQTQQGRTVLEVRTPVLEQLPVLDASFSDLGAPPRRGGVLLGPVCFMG

Effect of a mutation on the interaction, disrupting interaction:
E113A
W52A
R105A
